Measurements published in IntAct's records for PubMed 29769717.

Target: srrt_arath SE (UniProt Q9ZVD0)
Chain of UniProt Q9ZVD0 (Q9ZVD0 whole entry): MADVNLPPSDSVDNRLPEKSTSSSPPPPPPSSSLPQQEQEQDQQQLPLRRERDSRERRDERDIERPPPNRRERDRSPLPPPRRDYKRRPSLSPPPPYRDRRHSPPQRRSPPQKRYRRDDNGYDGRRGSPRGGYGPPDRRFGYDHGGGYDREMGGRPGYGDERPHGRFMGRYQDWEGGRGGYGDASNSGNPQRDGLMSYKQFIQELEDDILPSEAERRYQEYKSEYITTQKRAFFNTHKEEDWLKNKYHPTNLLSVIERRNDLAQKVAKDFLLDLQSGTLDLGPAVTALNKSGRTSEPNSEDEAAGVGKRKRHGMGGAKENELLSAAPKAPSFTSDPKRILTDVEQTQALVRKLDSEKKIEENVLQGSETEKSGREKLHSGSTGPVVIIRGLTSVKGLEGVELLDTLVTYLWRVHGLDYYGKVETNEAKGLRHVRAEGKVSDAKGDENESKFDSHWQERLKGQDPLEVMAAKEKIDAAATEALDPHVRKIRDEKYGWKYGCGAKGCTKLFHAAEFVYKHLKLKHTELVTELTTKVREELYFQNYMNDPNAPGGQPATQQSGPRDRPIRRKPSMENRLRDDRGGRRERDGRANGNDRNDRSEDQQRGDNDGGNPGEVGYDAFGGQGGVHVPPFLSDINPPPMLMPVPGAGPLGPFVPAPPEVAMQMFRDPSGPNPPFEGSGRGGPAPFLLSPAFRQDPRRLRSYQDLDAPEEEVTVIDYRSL

**Q.** For “ATP-dependent helicase BRM (Arabidopsis thaliana (Mouse-ear cress)), Q6EVK6 E1747A”, which “effect of a mutation on the interaction” value is on record?
**A.** The value was “disrupting interaction”.
